Experimental data: US9486502B2, “Methods of administering interferon gamma to absorb fluid from the subretinal space” (The United States of America, as represented by the …, priority 2008, dated 2016)

How the values were obtained:
[1] = system: hfRPE cells; assay: cyclic AMP assay (cAMP-screen ELISA); assay type: cell-based, human; details: IFNγ 0.5, 5, 50 ng/ml, all time points
Description: Intracellular cAMP levels were assayed with a cAMP-screen ELISA system (Applied Biosystems) following the manufacturer's protocol. Briefly, confluent monolayers of hfRPE cells cultured in 24-well plates were starved in SFM for 4 hours and then treated with IFNγ (0.5, 5, and 50 ng/ml), forskolin (10 μM), or forskolin (10 μM) and isobutylmethylxanthine (IBMX; 0.5 mM) for 5 minutes, 30 minutes, 4 hours, 16 hours, or 24 hours. For some of the experiments, cells were treated with IBMX (0.5 mM) for 30 minutes, and then IFNγ or forskolin was added. Cells were lysed and the supernatant collected after centrifugation. Samples were incubated with anti-cAMP antibody and cAMP-AP in a 96-well assay plate; serial dilutions of cAMP served as standards. The plate was incubated with substrate and the chemiluminescence signal measured with a SpectraMax M2 microplate reader (Molecular Devices). The standard curve was obtained by best fit with a weighted 4-parameter logistic curve and the cAMP concentration was calculated and normalized with total protein concentration.

[2] = system: hfRPE monolayers; assay: fluid transport (JV, TEP, RT) across hfRPE monolayers in modified Üssing chamber; assay type: cell-based, human
Excerpt: Confluent monolayers of hfRPE cultured on transwells were mounted in a modified Üssing chamber and transepithelial water flow measurements (JV) were made with a capacitance probe technique as described previously in Maminishkis, A., et al., Invest Ophthalmol Vis Sci, 2006, 47, 3612-3624; Shi, G., et al., Invest Ophthalmol Vis Sci, 2008, 49, 4620-4630; Edelman, J. L., et al., Invest Ophthalmol Vis Sci, 1991, 32, 3033-3040; Jiang, C., et al., Science, 1993, 262, 424-427; and Maminishkis, A., et al., Invest Ophthalmol Vis Sci, 2002, 43, 3555-3566, each incorporated herein by reference in its entirety.
Tissue viability was ascertained by recording transepithelial potential (TEP) and total tissue resistance (RT). It should be noted that the solution composition changes in this chamber were relatively slow (≈1-2 chamber volumes per minute) and the data sampling rate was once per minute, more than two orders of magnitude slower than the sampling rate in the electrophysiology chamber (see below). Therefore it was not possible to record fast changes, in seconds or minutes, in JV, TEP, or RT. After addition of IFNγ to the apical or basal baths, steady-state JV, TEP, and RT were recorded for 20-30 minutes. In control experiments, successive additions of IFNγ were made to test for the repeatability and reversibility of responses. To block IFNγ effects, RPE cells were incubated for 30-60 minutes with a blocking antibody against IFNγ R1, JAK inhibitor I, PKA inhibitors (H-89, EMD Biosciences; RP-8-Br-cAMPS, Sigma-Aldrich), nitric oxide synthase inhibitor (aminoguanidine hydrochloride, Sigma-Aldrich), P38 MAPK inhibitors (SB203580 or SB20290), or CHX. Other components of this signaling pathway were studied using P38 MAPK inhibitors (SB203580 and SB202190). Relatively specific Cl channel inhibitors, CFTRinh-172 or DIDS (EMD Biosciences, La Jolla, Calif.), were used to block cAMP or Ca^2+-activated Cl channels; experiments with CFTRinh-172 were performed as described in Muanprasat, C., et al., J Gen Physiol, 2004, 124, 125-137, incorporated herein by reference in its entirety. In chronic experiments, paired hfRPE tissues with matched RT values were incubated for 4-24 hours with IFNγ or CHX. The subsequent changes in JV, RT, and TEP were measured in Ringer's solution or serum free cell culture media as previously described in Shi, G., et al., Invest Ophthalmol Vis Sci, 2008 and Maminishkis, A., et al., Invest Ophthalmol Vis Sci, 2006, 47, 3612-3624, each incorporated herein by reference in its entirety. Intracellular levels of NO were elevated with 1-Hydroxy-2-oxo-3-(3-aminopropyl)-3-isopropyl-1-triazene (NOC-5, Enzo Life Sciences, Plymouth, Pa.). 8-Br-cGMP was purchased from Sigma-Aldrich.

B1: IFNγ: pleiotropic cytokine produced by T- and NK-cells; obtained from Peprotech (protein, UniProt P01579 24-161, looked up)
Interferon gamma: QDPYVKEAENLKKYFNAGHSDVADNGTLFLGILKNWKEESDRKIMQSQIVSFYFKLFKNFKDDQSIQKSVETIKEDMNVKFFNSNKKKRDDFEKLTNYSVTDLNVQRKAIHELIQVMAELSPAAKTGKRKRSQMLFRG
- effect on total intracellular cAMP [1]: no apparent effect
- mean JV after IFNγ ([2]; 10 experiments, from 12.9±1.6, mean±s.e.m.): 20.5±3.1 μl·cm^−2·hr^−1
- TEP after 24 hour IFNγ ([2]; IFNγ 5 ng/ml apical and basal, 24 hours): no significant TEP changes
- mean JV after 24 hour IFNγ ([2]; IFNγ 5 ng/ml apical and basal, 24 hours, control 7.6±1.5, 5 experiments): 15.2±2.0 μl·cm^−2·hr^−1
- cell viability as measured by TEP and RT ([2]; IFNγ 5 ng/ml basal bath): no apparent changes
- increase in JV ([2]; IFNγ 5 ng/ml in the basal bath, FIG. 14A): ~8.6 μl·cm^−2·hr^−1
- RT after 24 hour IFNγ ([2]; IFNγ 5 ng/ml, 24 hours, from 592±80, n=5): 356±139 Ω·cm^2
- effect on JV ([2]; IFNγ added to the apical bath): no significant effect
- IFNγ-induced resistance change ([2]; at 24 hours): ≈ 2 fold
- mean IFNγ-induced resistance change ([2]; at 24 hours): ≈ 240 Ω·cm^2
- JV after subsequent addition of IFNγ ([2]; continued presence of Rp-8-Br-cAMPS 2 μM, six experiments): 8.4±1.7 μl·cm^−2·hr^−1
- JV after subsequent addition of IFNγ ([2]; in presence of H-89, four experiments): 14.7±4.7 μl·cm^−2·hr^−1
- mean JV after IFNγ ([2]; nine experiments (P38 series), from 7.5 ±1.9): 16.5±2.2 μl·cm^−2·hr^−1
- mean JV after IFNγ ([2]; three experiments (H-89 series), from 8.4±1.6): 20.1±0.2 μl·cm^−2·hr^−1
